# According to publication PMC4118983, “Structural Insights into Calcium-Bound S100P and the V Domain of the RAGE Complex” (PLoS ONE, 2014):
# Several values for one entry are separate records, joined by “and”; a condition that tells them apart may be missing. Equal values may be shown once.
# Key:
# [1] = target: T1, Recombinant RAGE V domain (residues 24–121) (UniProt Q15109 24-121); assay: cell-based or functional assay
# [2] = target: T1, Recombinant RAGE V domain (residues …); assay: other fluorescence titration; intrinsic tryptophan fluorescence of 2 µM RAGE V domain (excitation 295 nm, emission 348.5 nm), S100P added in increments; 20 mM Tris-HCl pH 7.0, 100 mM NaCl, 4 mM CaCl2; 25°C; one-site binding model; conditions: both partners purified
# [3] = target: the molecule itself; assay: SEC; S100P proteins on a Superdex 75 column (1.6×60 cm), last step of purification
# [4] = target: T1, Recombinant RAGE V domain (residues …); assay: ITC; S100P (2.0 mM, syringe) titrated into RAGE V domain (0.06 mM, cell); MicroCal VP-ITC; 25°C; 20 mM Tris-HCl pH 7.0, 100 mM NaCl, 4 mM CaCl2; single-site model; similar approach for the S100P mutants; conditions: both partners purified
# T1 sequence (Q15109 24-121): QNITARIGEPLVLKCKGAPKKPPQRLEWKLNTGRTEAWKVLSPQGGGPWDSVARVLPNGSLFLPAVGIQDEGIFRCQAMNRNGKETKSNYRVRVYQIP
Kd [2] [µM],Kd [4],dH [4] [kJ/mol],stoichiometry N [4],Binder,"SW-480 cell proliferation (MTT assay, 48 h), 100 nM wild-type S100P, viable cell count against the control [1] [fold]",stoichiometry N [3]
~6.8,6.2 ± 0.1 µM,17.13 ± 0.0837,1.07 ± 0.03,"Recombinant wild-type S100P (residues 1–95), calcium-bound (natural protein, UniProt P25815 1-95, looked up, S100P, residues 1-95; 15N-labelled or unlabelled in the NMR experiments; it names no tag; also called WS100P; source: E. coli BL21(DE3), pET-20b(+), purified (size exclusion chromatography, Superdex 75)) MTELETAMGMIIDVFSRYSGSEGSTQTLTKGELKVLMEKELPGFLQSGKDKDAVDKLLKDLDANGDAQVDFSEFIVFVAAITSACHKYFEKAGLK",~1.5,2
,22.8 µM and 23.6 µM,,,"S100P E5A single mutant (natural protein, UniProt P25815 1-95, looked up, S100P, residues 1-95, with E5A; Used with 4 mM CaCl2; source: E. coli BL21(DE3), pET-20b(+), purified (size exclusion chromatography, Superdex 75)) MTELATAMGMIIDVFSRYSGSEGSTQTLTKGELKVLMEKELPGFLQSGKDKDAVDKLLKDLDANGDAQVDFSEFIVFVAAITSACHKYFEKAGLK",,2
,878 µM,,,"S100P D13A single mutant (natural protein, UniProt P25815 1-95, looked up, S100P, residues 1-95, with D13A; Used with 4 mM CaCl2; source: E. coli BL21(DE3), pET-20b(+), purified (size exclusion chromatography, Superdex 75)) MTELETAMGMIIAVFSRYSGSEGSTQTLTKGELKVLMEKELPGFLQSGKDKDAVDKLLKDLDANGDAQVDFSEFIVFVAAITSACHKYFEKAGLK",,2
,,,,"S100P F44G/Y88G/F89G triple mutant (natural protein, UniProt P25815 1-95, looked up, S100P, residues 1-95, with F44G, Y88G and F89G; Section 2.2 prints 'F44G/Y89G/F89G'; every other place prints F44G/Y88G/F89G; Used with 4 mM CaCl2; also called S100P F44G/Y89G/F89G (as printed in the methods); source: E. coli BL21(DE3), pET-20b(+), purified (size exclusion chromatography, Superdex 75)) MTELETAMGMIIDVFSRYSGSEGSTQTLTKGELKVLMEKELPGGLQSGKDKDAVDKLLKDLDANGDAQVDFSEFIVFVAAITSACHKGGEKAGLK",,2
